We go through 11 molecules from EP4772535A1 (Chia Tai Tianqing Pharmaceutical Group Co., Ltd., dated 2026).

Positions count from the first letter of the chain named.

The labels stand for the following.
B1: ch135A2B10 (antibody, human IgG1, kappa, V domains shown)
VH: DVKLVESGGGLVTPEGSLKLSCAASGFAFSTYGMAWVRQTPEKRLEWVASIHKGGFSTYYPDNVKGRFTISRDNDKNTLYLQMSSLKSEDTAMYYCIRHDWDGAMDYWGQGTSVTVSS
VL: DIVLTQSPSSMYASLGERVTITCKASQDINSYLNWFQQKPGKSPKTLIYRANRLVDGVPSRFSGSGSGQDYSLTISSLEYEDLGIYYCLQFDEFPYTFGGGTKLEIKR
notes: also called chimeric antibody of m135A2B10
B2: ch29H5D8 (antibody, human IgG1, kappa, V domains shown)
VH: EVQLQQSGAELARPGASVKLSCKASGYTFTNYGISWVKQRTGQGLEWIGEIYPRSVNTYYSAKFKGKATLTADKSSSTAYMELRSLTSEDSAVYFCARHYYGSSLDYWGQGTTLTVSS
VL: DIVLTQSPASLSVATGEKVTIRCITSSDIEDDMNWYQQKPGEPPKLLISEGNSLRPGVPSRFSSSGYGTDFVFTIENTLSEDVADYYCLQSDNIFTFGSGTKLEIKR
notes: also called chimeric antibody of m29H5D8
B3: ch137G11D10 (antibody, human IgG1, kappa, V domains shown)
VH: DVQLQESGPGLVKPSQSLSLTCTVTGYSITSDYAWNWIRQFPGNKLEWMGYITYSASTSYNPSLKSRISITRDTSKNQFFLQLNSVTTEDTATYYCARGAGTYYFDYWGQGSTLTVSS
VL: DIVLTQSPASLSVATGEKVTIRCITSTDIDEDMNWYQQKPGEPPKLLISEDNSLRPGVPSRFSSSGYGTDFVLTIENTLSEDVADYYCLQTNNLPLTFGAGTKLEIKR
notes: also called chimeric antibody of m137G11D10
B4: ch3G9B1 (antibody, human IgG1, kappa, V domains shown)
VH: QVQLQQSGTELARPGASVKLSCKASGYTFTSYGITWVKQRTGQGLEWIGEIYPRSGNTYFNEKFKGKATLTADKSSSTAYMELRSLTSEDSAVYFCARDRTGTGVDDYWGQGTTLTVSS
VL: DIVLTQSPASLSMAIGEKVTIRCITNTDIDDDMSWYQQKPGEPPNLLISEGNTLRPGVPSRFSSSGYGRDFVFTIENMLSEDVADYYCLQSNNLPYTFGGGTKLEIKR
notes: also called chimeric antibody of m3G9B1
B5: hz29H5D8-3.1 (antibody, human IgG1, kappa, V domains shown)
VH: QVQLVQSGAEVKKPGSSVKVSCKASGYTFTNYGISWVRQAPGQGLEWMGEIYPRSVNTYYAQKFQGRVTITADKSTSTAYMELSSLRSEDTAVYYCARHYYGSSLDYWGQGTLVTVSS
VL: DIQMTQSPSSLSASVGDRVTITCITSSDIEDDMNWYQQKPGKAPKLLISEGNSLRPGVPSRFSSSGYGTDFTFTISSLQPEDIATYYCLQSDNIFTFGQGTKVEIKR
notes: Humanized, human IgG1/kappa
B6: hz29H5D8-2.1 (antibody, human IgG1, kappa, V domains shown)
VH: B5 VH
VL: B5 VL with S49Y
notes: Humanized, human IgG1/kappa
B7: hz137G11D10-2.2 (antibody, human IgG1, kappa, V domains shown)
VH: QVQLQESGPGLVKPSQTLSLTCTVSGYSITSDYAWNWIRQHPGKGLEWIGYITYSASTSYNPSLKSRVTISRDTSKNQFFLKLSSVTAADTAVYYCARGAGTYYFDYWGQGTLVTVSS
VL: DIQMTQSPSSLSASVGDRVTITCITSTDIDEDMNWYQQKPGKAPKLLIYEDNSLRPGVPSRFSGSGYGTDFTLTISSLQPEDFATYYCLQTNNLPLTFGQGTKVEIKR
notes: Humanized, human IgG1/kappa
B8: hz137G11D10-1.1 (antibody, human IgG1, kappa, V domains shown)
VH: B7 VH with F80S
VL: ETTLTQSPAFMSATPGDKVNISCITSTDIDEDMNWYQQKPGEAAKLIISEDNSLRPGIPPRFSSSGYGTDFTLTINNIESEDAAYYFCLQTNNLPLTFGQGTKVEIKR
notes: Humanized, human IgG1/kappa
B9: hz137G11D10-1.2 (antibody, human IgG1, kappa, V domains shown)
VH: B7 VH
VL: B8 VL
notes: Humanized, human IgG1/kappa
B10: hz137G11D10-3.2 (antibody, human IgG1, kappa, V domains shown)
VH: B7 VH
VL: B7 VL with Y49S, G64S
notes: Humanized, human IgG1/kappa
B11: hz137G11D10-3.1 (antibody, human IgG1, kappa, V domains shown)
VH: B7 VH with F80S
VL: B7 VL with Y49S, G64S
notes: Humanized, human IgG1/kappa

T2 sequence (Q01973 30-403 limits assumed): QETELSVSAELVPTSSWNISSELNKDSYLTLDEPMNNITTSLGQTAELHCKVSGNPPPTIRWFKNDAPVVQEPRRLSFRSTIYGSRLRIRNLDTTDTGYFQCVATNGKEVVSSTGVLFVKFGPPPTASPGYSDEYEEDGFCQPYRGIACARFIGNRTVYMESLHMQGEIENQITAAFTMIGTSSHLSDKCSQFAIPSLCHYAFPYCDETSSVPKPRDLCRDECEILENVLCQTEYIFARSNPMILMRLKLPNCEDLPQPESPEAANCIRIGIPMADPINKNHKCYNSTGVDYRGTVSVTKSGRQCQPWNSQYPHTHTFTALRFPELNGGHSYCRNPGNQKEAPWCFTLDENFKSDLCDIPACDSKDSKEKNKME

One assay deals with T1, ROR1 naturally expressed on human tumor cell lines (A549, Jeko-1, SW620, PA-1) (human, UniProt Q01973 30-937).
T1 construct: whole, on cells; also called cells expressing ROR1
T1 sequence (Q01973 30-937): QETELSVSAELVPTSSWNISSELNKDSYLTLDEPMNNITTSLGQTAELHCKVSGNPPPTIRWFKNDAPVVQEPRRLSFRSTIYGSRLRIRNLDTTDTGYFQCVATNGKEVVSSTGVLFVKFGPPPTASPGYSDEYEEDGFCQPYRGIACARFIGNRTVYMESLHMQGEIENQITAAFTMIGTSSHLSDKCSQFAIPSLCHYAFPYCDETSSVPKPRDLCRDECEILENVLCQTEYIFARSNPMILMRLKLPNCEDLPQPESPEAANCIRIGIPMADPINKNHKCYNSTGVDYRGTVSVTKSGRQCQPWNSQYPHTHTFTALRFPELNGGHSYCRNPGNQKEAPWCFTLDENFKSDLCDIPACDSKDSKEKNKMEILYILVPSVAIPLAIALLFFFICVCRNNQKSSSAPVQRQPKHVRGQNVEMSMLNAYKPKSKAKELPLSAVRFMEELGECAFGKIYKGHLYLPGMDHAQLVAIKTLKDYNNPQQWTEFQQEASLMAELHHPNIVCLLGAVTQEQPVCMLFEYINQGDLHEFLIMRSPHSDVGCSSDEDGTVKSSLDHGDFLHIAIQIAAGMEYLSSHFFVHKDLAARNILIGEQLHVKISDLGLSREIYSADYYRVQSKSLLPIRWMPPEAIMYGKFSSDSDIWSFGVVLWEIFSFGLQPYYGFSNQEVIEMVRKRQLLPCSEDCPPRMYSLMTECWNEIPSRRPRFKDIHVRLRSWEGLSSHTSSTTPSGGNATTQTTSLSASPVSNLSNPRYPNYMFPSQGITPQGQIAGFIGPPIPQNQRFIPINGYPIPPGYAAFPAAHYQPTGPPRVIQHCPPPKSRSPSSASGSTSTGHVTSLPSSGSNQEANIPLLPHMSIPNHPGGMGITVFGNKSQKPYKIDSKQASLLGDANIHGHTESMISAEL
As to the kind of experiment: FACS on A549 cells naturally expressing ROR1.
The term EC50 denotes the concentration needed to bring the measured effect to its halfway point. As to B1, the half-maximal effective concentration (EC50) amounted to 0.094 nM and the “Top (MFI)” value was found to be 87800 MFI.

With B2, the EC50 turned out to be 0.016 nM and the “Top (MFI)” value was found to be 78500 MFI.

For B3, the EC50 is 0.02 nM and the “Top (MFI)” value turned out to be 82800 MFI.

Turning to B4, a half-maximal effect (EC50) was put at 0.03 nM and the “Top (MFI)” value came out at 65200 MFI.

Another assay concerns the target T1, ROR1 naturally expressed on human tumor …. As to the kind of experiment: FACS on PA-1 cells naturally expressing ROR1.
Regarding B5, the concentration for a half-maximal effect (EC50) was 0.092 nM and the “Top (MFI)” value is 247000 MFI.

Consider B6, for which the midpoint of the response, the EC50, lay at 0.126 nM and the “Top (MFI)” value turned out to be 239000 MFI.

The next assay has the same target. As to the kind of experiment: FACS on PA-1 cells naturally expressing ROR1. This is another data set of the same source.
On to B7, for which the EC50 amounted to 0.061 nM and the “Top (MFI)” value worked out at 233000 MFI.

Turning to B8, the EC50 is 0.075 nM and the “Top (MFI)” value was determined as 244000 MFI.

In the case of B9, the concentration for a half-maximal effect (EC50) stood at 0.092 nM and the “Top (MFI)” value was 248000 MFI.

In the case of B10, the EC50 was found to be 0.054 nM and the “Top (MFI)” value was determined as 225000 MFI.

In the case of B11, the response was half-maximal at 0.063 nM (EC50) and the “Top (MFI)” value turned out to be 231000 MFI.

The next assay shares this target. As to the kind of experiment: FACS on SW620 cells naturally expressing ROR1.
B1: the response was half-maximal at 0.06 nM (EC50) and the “Top (MFI)” value is 29800 MFI.

Consider B2, for which the concentration giving a half-maximal response (EC50) came out at 0.01 nM and the “Top (MFI)” value was 27000 MFI.

With B3, a half-maximal effect (EC50) was put at 0.01 nM and the “Top (MFI)” value turned out to be 27300 MFI.

As for B4, the concentration for a half-maximal effect (EC50) stood at 0.048 nM and the “Top (MFI)” value came to 20400 MFI.

A further assay has the same target. As to the kind of experiment: FACS on SW620 cells naturally expressing ROR1. The source holds these as a separate data set.
In the case of B5, the midpoint of the response, the EC50, lay at 0.011 nM and the “Top (MFI)” value is 30700 MFI.

Take B6: the EC50 turned out to be 0.015 nM and the “Top (MFI)” value stood at 28600 MFI.

Another assay has the same target. As to the kind of experiment: FACS on SW620 cells naturally expressing ROR1. The source holds these as a separate data set.
Turning to B7, the EC50 is 0.009 nM and the “Top (MFI)” value was 28500 MFI.

For the molecule B8, the EC50 is 0.013 nM and the “Top (MFI)” value worked out at 32600 MFI.

On to B9, for which the EC50 was 0.013 nM and the “Top (MFI)” value amounted to 31500 MFI.

As to B10, the half-maximal effective concentration (EC50) came to 0.011 nM and the “Top (MFI)” value came out at 30700 MFI.

As for B11, it took 0.009 nM to reach a half-maximal effect (EC50) and the “Top (MFI)” value was 30900 MFI.

The next assay shares this target. As to the kind of experiment: FACS on Jeko-1 cells naturally expressing ROR1.
On to B1, for which a half-maximal response (EC50) required 0.037 nM and the “Top (MFI)” value came to 71900 MFI.

For B2, the EC50 came out at 0.011 nM and the “Top (MFI)” value is 70400 MFI.

For B3, a half-maximal response (EC50) required 0.012 nM and the “Top (MFI)” value amounted to 71100 MFI.

In the case of B4, a half-maximal effect (EC50) was put at 0.01 nM and the “Top (MFI)” value amounted to 61100 MFI.

The target is the same in the next assay. As to the kind of experiment: FACS on Jeko-1 cells naturally expressing ROR1. The source holds these as a separate data set.
On to B5, for which the concentration giving a half-maximal response (EC50) was 0.014 nM and the “Top (MFI)” value is 87700 MFI.

Regarding B6, the EC50 is 0.015 nM and the “Top (MFI)” value amounted to 85000 MFI.

Another assay shares this target. As to the kind of experiment: FACS on Jeko-1 cells naturally expressing ROR1. The source holds these as a separate data set.
As to B7, the response was half-maximal at 0.012 nM (EC50) and the “Top (MFI)” value was 86100 MFI.

As for B8, a half-maximal response (EC50) required 0.015 nM and the “Top (MFI)” value was 93200 MFI.

B9: the 50% effective concentration (EC50) was found to be 0.016 nM and the “Top (MFI)” value amounted to 92500 MFI.

Take B10: the EC50 stood at 0.012 nM and the “Top (MFI)” value was 86800 MFI.

In the case of B11, the EC50 amounted to 0.012 nM and the “Top (MFI)” value is 87000 MFI.

The next assay concerns the target T2, human/cynomolgus monkey ROR1 protein (Acro Biosystems, Cat. No.: RO1-H522y) (human/cynomolgus monkey, UniProt Q01973 30-403).
T2 construct: Bought SPR analyte
As to the kind of experiment: SPR (Biacore), antibody captured on anti-hIgG CM5 chip, ROR1 protein as analyte, 1:1 model. A general note: SPR reads the build-up and loss of mass on a sensor chip optically.
As usually defined, the Kd is the constant that tells how readily two partners part at equilibrium. Usually koff stands for the rate constant with which the complex falls apart. As a reminder, the kon is the rate constant with which the complex forms. Take B1: the equilibrium dissociation constant (Kd) is 0.586 nM, the koff came to 0.000551 s⁻¹ and the kon was found to be 941000 M⁻¹ s⁻¹.

The molecule B2 gave a Kd of 0.669 nM, a koff of 0.00248 s⁻¹ and a kon of 3.7e+06 M⁻¹ s⁻¹.

The molecule B3 displayed a Kd of 0.61 nM, an off-rate (koff) of 0.00315 s⁻¹ and a kon of 5.16e+06 M⁻¹ s⁻¹.

B4 returned a Kd of 27.1 nM, a koff of 0.0639 s⁻¹ and an on-rate (kon) of 2.36e+06 M⁻¹ s⁻¹.

Another assay deals with T2, human/cynomolgus monkey ROR1 protein …. As to the kind of experiment: SPR (Biacore), antibody captured on anti-hIgG CM5 chip, ROR1 protein as analyte, method of Example 5.
With B5, the Kd was 0.112 nM, the koff was 0.000218 s⁻¹ and the on-rate (kon) worked out at 1.95e+06 M⁻¹ s⁻¹.

Molecule B6 yielded a dissociation constant (Kd) of 0.589 nM, a koff of 0.000925 s⁻¹ and an on-rate (kon) of 1.57e+06 M⁻¹ s⁻¹.

B7 gave a Kd of 0.343 nM, a koff of 0.000811 s⁻¹ and an on-rate constant (kon) of 2.37e+06 M⁻¹ s⁻¹.

In the case of B8, binding was put at a Kd of 0.145 nM, the off-rate (koff) was found to be 0.000539 s⁻¹ and the kon stood at 3.72e+06 M⁻¹ s⁻¹.

Turning to B9, the Kd came to 0.105 nM, the koff came out at 0.000414 s⁻¹ and the kon stood at 3.94e+06 M⁻¹ s⁻¹.

The molecule B10 yielded a Kd of 0.16 nM, a koff of 0.000469 s⁻¹ and an on-rate (kon) of 2.92e+06 M⁻¹ s⁻¹.

For the molecule B11, the Kd is 0.172 nM, the dissociation rate constant (koff) amounted to 0.000492 s⁻¹ and the on-rate constant (kon) worked out at 2.86e+06 M⁻¹ s⁻¹.
